Experimental data from patent publication US20160304584, “MAFB MUTANTS AND USES THEREOF” (INSERM (INSTITUT NATIONAL DE LA SANTÉ ET DE LA …, published 2016).

What was measured:
[1] = target: MafB (E269R) full-length with c-Fos (UniProt P54841;P01101 P54841:1-323,P01101:1-380, MafB E269R); test: cell_activity; luciferase, HEK293, with c-Fos
Procedure: HEK293 cells were grown in Dulbecco's modified eagle's medium supplemented with 10% fetal bovine serum in six-well plates to reach 60-80% confluence at the time of transfection. DNA was transfected by calcium phosphate precipitation procedure as previously described (Sieweke et al., 1996). pTK81 luciferase reporter constructs (200 ng) (Promega) containing three multimerized T-MARE(alpha) ([…] CA […]), T-MARE(beta) ([…] CA […]), or T-MARE (y) ([…] […]) were cotransfected with 200 ng of Rc/CMV (Invitrogen) constructs driving the expression of wt and mutant full-length MafB with or without 200 ng of Rc/CMV construct driving the expression of c-Fos or no transgene (vector control). Assays were performed in duplicate. The transfection efficiency was normalized by assaying for β-galactosidase activity from a cotransfected CVM-LacZ construct, and luciferase activity was analyzed as previously described (Sieweke et al., 1996). […] The transfection efficiency was normalized, by assaying for β-galactosidase activity from a cotransfected CVM-LacZ construct, and luciferase activity was analyzed using a dual-luciferase reporter assay system (Promega, Cat: E1910) according to the manufacturer's recommendations.

[2] = target: T1, MafB (wt) homodimer (UniProt P54841 SEQ:211-305); test: EMSA; only homodimer bound; settings: chain copies: 2; label: 32P
T1 sequence (P54841 211-305): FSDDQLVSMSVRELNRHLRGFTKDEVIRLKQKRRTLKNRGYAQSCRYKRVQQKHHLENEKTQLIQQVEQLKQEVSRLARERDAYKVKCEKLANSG
Procedure: (§1) Double-stranded synthetic oligonucleotides corresponding to the T-MARE(a) ([…]) (SEQ ID NO:5), to T-MARE(beta) ([…]) (SEQ ID NO:6) or to T-MARE(y) ([…]) (SEQ ID NO:7) sites were incubated with Klenow fragment DNA polymerase in the presence of [α³²P][…] and purified on Qiaquick Spin Columns (Qiagen). Increasing amount (0.25 to 64 pmol) of recombinant c-Fos and recombinant protein (4 pmol) of MafB (wt) or MafB (E269R) and MafB (V277N) mutants were incubated with 0.05 ng of probe in 20 μL of binding reaction buffer (20 mM Tris-HCl (pH 7.5), 100 mM KCl, 0.1 mM EDTA, 5% glycerol, 0.1% Triton X-100, 0.02% BSA, […] poly d[I-C]) for 20 min. Complexes formed were resolved on a 6% polyacrylamide (acrylamide/bisacrylamide ratio, 29:1) non-denaturating gel (Bio-Rad) in 0.5% Tris-glycine. Gels were dried and autoradiographed at −80° C.

[3] = target: T2, MafB (wt)/c-Fos heterodimer (UniProt P54841;P01101 P54841:211-305,P01101:138-200); test: EMSA; no significant heterodimer detected; settings: label: 32P
T2 sequence (P54841 211-305, chain 1 of 2): as the sequence (P54841 211-305) above
T2 sequence (P01101 138-200, chain 2 of 2): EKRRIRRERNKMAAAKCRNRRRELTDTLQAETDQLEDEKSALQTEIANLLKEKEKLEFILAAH
Procedure: as §1

[4] = target: MafB (V277N) homodimer (UniProt P54841 SEQ:211-305, V277N); test: EMSA; no enhanced site selection compared with wt; settings: chain copies: 2; label: 32P
MafB (V277N) homodimer, sequence (P54841 211-305 V277N): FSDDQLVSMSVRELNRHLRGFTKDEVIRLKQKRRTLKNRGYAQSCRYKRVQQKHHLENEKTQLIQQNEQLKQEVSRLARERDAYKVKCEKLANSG
Procedure: as §1

[5] = target: T2, MafB (wt)/c-Fos heterodimer; test: EMSA; strongly preferred over homodimer; settings: label: 32P
Procedure: as §1

[6] = target: MafB (V277N)/c-Fos heterodimer (UniProt P54841;P01101 P54841:211-305,P01101:138-200, MafB V277N); test: EMSA; binding unchanged versus wt; settings: label: 32P
MafB (V277N)/c-Fos heterodimer, sequence (P54841 211-305 V277N, chain 1 of 2): as the sequence (P54841 211-305 V277N) above
MafB (V277N)/c-Fos heterodimer, sequence (P01101 138-200, stated change not applied, chain 2 of 2): as the sequence (P01101 138-200, chain 2 of 2) above
Procedure: as §1

[7] = target: MafB (E269R)/c-Fos heterodimer (UniProt P54841;P01101 P54841:211-305,P01101:138-200, MafB E269R); test: EMSA; exclusive heterodimer even at residual c-Fos; settings: label: 32P
MafB (E269R)/c-Fos heterodimer, sequence (P54841 211-305 E269R, chain 1 of 2): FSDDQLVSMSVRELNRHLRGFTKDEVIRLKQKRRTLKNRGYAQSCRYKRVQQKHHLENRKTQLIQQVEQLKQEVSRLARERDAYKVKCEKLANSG
MafB (E269R)/c-Fos heterodimer, sequence (P01101 138-200, stated change not applied, chain 2 of 2): as the sequence (P01101 138-200, chain 2 of 2) above
Procedure: as §1

[8] = target: T1, MafB (wt) homodimer; test: EMSA; comparable to heterodimer at equimolar c-Fos; favoured with excess MafB; settings: chain copies: 2; label: 32P
Procedure: as §1

[9] = target: T2, MafB (wt)/c-Fos heterodimer; test: EMSA; comparable to homodimer at equimolar ratio; favoured with excess c-Fos; settings: label: 32P
Procedure: as §1

[10] = target: MafB (wt) fragment 211-305 C298S, homodimer (Mus musculus, UniProt P54841 SEQ:211-305, C298S); test: structure; 2.9 A crystal structure; 50 mM MgCl2 in complex buffer; settings: chain copies: 2
MafB (wt) fragment 211-305 C298S, homodimer, sequence (P54841 211-305 C298S): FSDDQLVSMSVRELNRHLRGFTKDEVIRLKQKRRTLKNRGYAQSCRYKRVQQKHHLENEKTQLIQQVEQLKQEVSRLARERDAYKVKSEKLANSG
Procedure: The C-terminal region of MafB from Mus musculus (residues 211-305, C298S) was purified as previously described (Textor et al., 2007). Homodimeric MafB₂ complexes were dialyzed overnight into 30 mM Tris-HCl (pH 7.3), 80 mM NaCl, 50 mM MgCl₂ and 3 mM β-mercaptoethanol at room temperature in the presence of an oligonucleotide encompassing the T-MARE-binding site (forward: […] (SEQ ID NO:3); reverse: […] (SEQ ID NO:4), METABION). The protein-DNA complex was further purified by size exclusion chromatography on a Superdex-75 (16/60) column (GE), equilibrated with the dialysis buffer. The pooled peak fractions corresponding to the (MafB)₂/T-MARE complex were analyzed by SDS-PAGE and native PAGE gels and concentrated to 5 mg/mL, using a centrifugal concentrator with a polyethersulfone membrane with a 10,000 MWCO (VIVASPIN, Sartorius Stedim Biotech). Crystallization drops of 400 nL volume, using a 1:1 protein/mother liquor ratio, were set up in 96-well sitting-drop plates and allowed to equilibrate at 19° C. Diffracting crystals grew in the presence of 0.1 M Na-citrate (pH 5.0), 15% [w/v] PEG-4000, 5% [v/v] PEG-400, and 0.1 M MgCl₂.

MafB (E269R) full-length with c-Fos, sequence (P54841 whole entry E269R, chain 1 of 2): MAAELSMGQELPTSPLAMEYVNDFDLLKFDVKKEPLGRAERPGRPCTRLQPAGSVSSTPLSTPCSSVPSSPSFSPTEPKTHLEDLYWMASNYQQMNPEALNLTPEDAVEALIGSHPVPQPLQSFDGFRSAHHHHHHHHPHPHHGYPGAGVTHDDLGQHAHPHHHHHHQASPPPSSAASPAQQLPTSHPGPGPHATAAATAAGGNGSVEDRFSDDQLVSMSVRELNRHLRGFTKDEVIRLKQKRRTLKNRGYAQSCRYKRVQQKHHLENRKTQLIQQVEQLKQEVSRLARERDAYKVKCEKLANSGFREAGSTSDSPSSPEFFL
MafB (E269R) full-length with c-Fos, sequence (P01101 whole entry, stated change not applied, chain 2 of 2): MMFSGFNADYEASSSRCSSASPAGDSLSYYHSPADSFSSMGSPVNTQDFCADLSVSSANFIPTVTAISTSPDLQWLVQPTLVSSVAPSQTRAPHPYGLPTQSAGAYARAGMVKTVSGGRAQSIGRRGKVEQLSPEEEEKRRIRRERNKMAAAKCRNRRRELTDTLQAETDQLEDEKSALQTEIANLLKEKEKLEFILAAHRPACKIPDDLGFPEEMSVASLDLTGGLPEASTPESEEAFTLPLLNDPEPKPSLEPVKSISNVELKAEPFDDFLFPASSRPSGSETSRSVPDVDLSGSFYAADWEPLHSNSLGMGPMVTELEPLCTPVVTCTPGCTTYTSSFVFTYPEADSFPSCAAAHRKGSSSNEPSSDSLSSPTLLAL

B1: T-MARE(beta) x3 reporter (dsDNA)
DNA 1: TCGACCTCCCCTCCTATGAGTCAGCAATTCTCTCGAGCTCCCCTCCTATGAGTCAGCAATTCTCTCGAGCTCCCCTCCTATGAGTCAGCAATTCTCGTCGACCC
DNA 2: GGGTCGACGAGAATTGCTGACTCATAGGAGGGGAGCTCGAGAGAATTGCTGACTCATAGGAGGGGAGCTCGAGAGAATTGCTGACTCATAGGAGGGGAGGTCGA
Q: For B1, which activity [1] is on record?
A: 5 fold vs wt

B2: T-MARE(gamma) (dsDNA)
DNA 1: TCGTCCCTTATGCCTACTAGGCAATTCTC
DNA 2: GAGAATTGCCTAGTAGGCATAAGGGACGA
Q: What does the source list for B2?
A: binding result [2]: binds; binding result [3]: no binding; binding result [4]: binds

B3: T-MARE(beta) (dsDNA)
DNA 1: TCGTCCCCTCCTATGAGTCAGCAATTCTC
DNA 2: GAGAATTGCTGACTCATAGGAGGGGACGA
Q: Does B3 bind [5]?
A: binds

Q: Does B3 bind [6]?
A: binds

Q: Does B3 bind [7]?
A: binds

B4: T-MARE(alpha) (dsDNA)
DNA 1: TCGTCCCTTATGCTGACTCAGCAATTCTC
DNA 2: GAGAATTGCTGAGTCAGCATAAGGGACGA
Q: What does the source list for B4?
A: binding result [8]: binds; binding result [9]: binds

B5: T-MARE 20-bp (dsDNA)
DNA 1: TAATTGCTGACTCAGCAATT
DNA 2: TAATTGCTGAGTCAGCAATT
Q: Does B5 bind [10]?
A: binds
